Patent publication US20230212319A1, “NOVEL ANTIGEN BINDING DOMAINS AND SYNTHETIC ANTIGEN RECEPTORS INCORPORATING THE SAME” (University of Southern California, priority 2020, published 2023)

B1: 22140 (protein)
chain: MALPVTALLLPLALLLHAARPACEVQLLESGGGLIQPGGSLRLSCAASGFTFSSHAMTWVRQAPGKGLEWVSAISGSGDYTHYADSVKGRFTISRDNSKNTVYLQMNSLRAEDSAVYYCAKDEDGGSLLGHRGQGTLVTVSSGTGGGGSGGGGSGGGGSEFDIQMTQSPSSLSASVGDRVTITCKASDHINNWLAWYQQKPGQAPKLLIYGATTLETGVPSRFSGSGSGTDYTLTISSLQPEDFATYYCQQSWNTPWTFGQGTKLEIKRLEGQPKANPTVTLFPPSSEELQANKATLVCLISDFYPGAVTVAWKADGSPVKAGVETTKPSKQSNNKYAASSYLSLTPEQWKSHRSYSCQVTHEGSTVEKTVAPTECSGRADCGFTSESYQQGVLSATILYEILLGKATLYAVLVSALVLMAMVKRKDSRGRAKRSGSGATNFSLLKQAGDVEENPGPTSATMDWIWRILFLVGAATGAHSGPQVQLQESGGGLAQAGGSLRLSCAASGRTFSMGWFRQAPGKEREFVAAITYSGGSPYYASSVRGRFTISRDNAKNTVYLQMNSLKPEDTAVYYCAANPTYGSDWNAENWGQGTQVTVSSGSGGGGSGGGGSGGGGSFEQVQLQQPGAELVKPGASVKMSCKASGYAFSSYWINWMKQKPGQGLEWIGQIYPGDGDTNYNGKFKGRATLTADTSSSTAYMQLSSLTSEDSAVYFCARSITTVVGCAMDYWGQGTSVTVSSTRASTKGPSVFPLAPSSKSTSGGTAALGCLVKDYFPEPVTVSWNSGALTSGVHTFPAVLQSSGLYSLSSVVTVPSSSLGTQTYICNVNHKPSNTKVDKRVEPKSCIPEDTFFPSPESSCDVKLVEKSFETDTNLNFQNLSVIGFRILLLKVAGFNLLMTLRLWSSRAKRSGSGVKQTLNFDLLKLAGDVESNPGPSRGHMTEYKPTVRLATRDDVPRAVRTLAAAFADYPATRHTVDPDRHIERVTELQELFLTRVGLDIGKVWVADDGAAVAVWTTPESVEAGAVFAEIGPRMAELSGSRLAAQQQMEGLLAPHRPKEPAWFLATVGVSPDHQGKGLGSAVVLPGVEAAERAGVPAFLETSAPRNLPFYERLGFTVTADVEVPEGPRTWCMTRKPGA
B2: 22129 (protein)
chain: MALPVTALLLPLALLLHAARPEVQVLESGGGLVQPGGSLRLSCAASGFTFSNFAMSWVRQAPGKGLEWVSTISGSAGTTDYADSVKGRFTISRDNSKKTLYLQMNSLRVEDTAVYYCADGRGPFFDYRGQGTLVTVSSGTGGGGSGGGGSGGGGSEFDIQMTQSPSSLSASVGDRVTITCKASDHINNWLAWYQQKPGQAPKLLIYGATTLETGVPSRFSGSGSGTDYTLTISSLQPEDFATYYCQQSWNTPWTFGQGTKLEIKRLEIQNPDPAVYQLRDSKSSDKSVCLFTDFDSQTNVSQSKDSDVYITDKCVLDMRSMDFKSNSAVAWSNKSDFACANAFNNSIIPEDTFFPSSDVPCDVKLVEKSFETDTNLNFQNLSVIGFRILLLKVAGFNLLMTLRLWSSRAKRSGSGVKQTLNFDLLKLAGDVESNPGPTSATMDWIWRILFLVGAATGAHSGPQVQLQESGGGLAQAGGSLRLSCAASGRTFSMGWFRQAPGKEREFVAAITYSGGSPYYASSVRGRFTISRDNAKNTVYLQMNSLKPEDTAVYYCAANPTYGSDWNAENWGQGTQVTVSSGSGGGGSGGGGSGGGGSFEQVQLQQPGAELVKPGASVKMSCKASGYAFSSYWINWMKQKPGQGLEWIGQIYPGDGDTNYNGKFKGRATLTADTSSSTAYMQLSSLTSEDSAVYFCARSITTVVGCAMDYWGQGTSVTVSSTREDLKNVFPPEVAVFEPSKAEIAHTQKATLVCLATGFYPDHVELSWWVNGKEVHSGVCTDPQPLKEQPALNDSRYCLSSRLRVSATFWQNPRNHFRCQVQFYGLSENDEWTQDRAKPVTQIVSAEAWGRADCGITSASYHQGVLSATILYEILLGKATLYAVLVSALVLMAMVKRKDSRGRAKRSGSGATNFSLLKQAGDVEENPGPSRGHMTEYKPTVRLATRDDVPRAVRTLAAAFADYPATRHTVDPDRHIERVTELQELFLTRVGLDIGKVWVADDGAAVAVWTTPESVEAGAVFAEIGPRMAELSGSRLAAQQQMEGLLAPHRPKEPAWFLATVGVSPDHQGKGLGSAVVLPGVEAAERAGVPAFLETSAPRNLPFYERLGFTVTADVEVPEGPRTWCMTRKPGA
B3: 22111 (protein)
chain: MALPVTALLLPLALLLHAARPEVQLLESGGGLVQPGGSLRLSCAASGFTFSSYAMSWVRQAPGKGLEWVSSISGSGDYIYYADSVKGRFTISRDISKNTLYLQMNSLRAEDTAVYYCAKEGTGANSSLADYRGQGTLVTVSSGTGGGGSGGGGSGGGGSEFDIQMTQSPSSLSASVGDRVTITCKASDHINNWLAWYQQKPGQAPKLLIYGATTLETGVPSRFSGSGSGTDYTLTISSLQPEDFATYYCQQSWNTPWTFGQGTKLEIKRLEDLKNVFPPEVAVFEPSEAEISHTQKATLVCLATGFYPDHVELSWWVNGKEVHSGVCTDPQPLKEQPALNDSRYCLSSRLRVSATFWQNPRNHFRCQVQFYGLSENDEWTQDRAKPVTQIVSAEAWGRADCGFTSESYQQGVLSATILYEILLGKATLYAVLVSALVLMAMVKRKDSRGRAKRSGSGATNFSLLKQAGDVEENPGPTSMDWIWRILFLVGAATGAHSFEQVQLQQPGAELVKPGASVKMSCKASGYAFSSYWINWMKQKPGQGLEWIGQIYPGDGDTNYNGKFKGRATLTADTSSSTAYMQLSSLTSEDSAVYFCARSITTVVGCAMDYWGQGTSVTVSSTRIQNPDPAVYQLRDSKSSDKSVCLFTDFDSQTNVSQSKDSDVYITDKCVLDMRSMDFKSNSAVAWSNKSDFACANAFNNSIIPEDTFFPSPESSCDVKLVEKSFETDTNLNFQNLSVIGFRILLLKVAGFNLLMTLRLWSSRAKRSGSGVKQTLNFDLLKLAGDVESNPGPSRGHMTEYKPTVRLATRDDVPRAVRTLAAAFADYPATRHTVDPDRHIERVTELQELFLTRVGLDIGKVWVADDGAAVAVWTTPESVEAGAVFAEIGPRMAELSGSRLAAQQQMEGLLAPHRPKEPAWFLATVGVSPDHQGKGLGSAVVLPGVEAAERAGVPAFLETSAPRNLPFYERLGFTVTADVEVPEGPRTWCMTRKPGA
B4: 22127 (protein)
chain: MALPVTALLLPLALLLHAARPMLPAPKNLVVSRITEDSARLSWTAPDAAFDSFPIRYIETLIWGEAIWLDVPGSERSYDLTGLKPGTEYAVVITGVKGGRFSSPLVASFTTGTGGGGSGGGGSGGGGSEFDIQMTQSPSSLSASVGDRVTITCKASDHINNWLAWYQQKPGQAPKLLIYGATTLETGVPSRFSGSGSGTDYTLTISSLQPEDFATYYCQQSWNTPWTFGQGTKLEIKRLEIQNPDPAVYQLRDSKSSDKSVCLFTDFDSQTNVSQSKDSDVYITDKCVLDMRSMDFKSNSAVAWSNKSDFACANAFNNSIIPEDTFFPSSDVPCDVKLVEKSFETDTNLNFQNLSVIGFRILLLKVAGFNLLMTLRLWSSRAKRSGSGVKQTLNFDLLKLAGDVESNPGPTSATMDWIWRILFLVGAATGAHSGPQVQLQESGGGLAQAGGSLRLSCAASGRTFSMGWFRQAPGKEREFVAAITYSGGSPYYASSVRGRFTISRDNAKNTVYLQMNSLKPEDTAVYYCAANPTYGSDWNAENWGQGTQVTVSSGSGGGGSGGGGSGGGGSFEQVQLQQPGAELVKPGASVKMSCKASGYAFSSYWINWMKQKPGQGLEWIGQIYPGDGDTNYNGKFKGRATLTADTSSSTAYMQLSSLTSEDSAVYFCARSITTVVGCAMDYWGQGTSVTVSSTREDLKNVFPPEVAVFEPSKAEIAHTQKATLVCLATGFYPDHVELSWWVNGKEVHSGVCTDPQPLKEQPALNDSRYCLSSRLRVSATFWQNPRNHFRCQVQFYGLSENDEWTQDRAKPVTQIVSAEAWGRADCGITSASYHQGVLSATILYEILLGKATLYAVLVSALVLMAMVKRKDSRGRAKRSGSGATNFSLLKQAGDVEENPGPSRGHMTEYKPTVRLATRDDVPRAVRTLAAAFADYPATRHTVDPDRHIERVTELQELFLTRVGLDIGKVWVADDGAAVAVWTTPESVEAGAVFAEIGPRMAELSGSRLAAQQQMEGLLAPHRPKEPAWFLATVGVSPDHQGKGLGSAVVLPGVEAAERAGVPAFLETSAPRNLPFYERLGFTVTADVEVPEGPRTWCMTRKPGA

The molecules below were run on RAJI cells (assay: JNG assay, co-culture with RAJI cells). Conditions: JNG cells expressing construct, co-culture with Raji.
Assay type: cell-based
Outline: (§1)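 Jurkat-NFAT-GFP (JNG) cells stably expressing SAR constructs via lentiviral transduction and puromycin/blasticidin selection were cocultured with target cells at E:T ~1:2 for ~4–18 h. NFAT-driven GFP was measured by FACS versus parental JNG cells; scores +/- to 5+ denote ~5–50% GFP-positive cells.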
B1 was tested, and the “NFAT-GFP ASSAY: Raji” value was 5+ (refer to approximately 5%, 10%, 20%, 30%, 40% and 50% GFP positive cells). For B2, the “NFAT-GFP ASSAY: Raji” value was “Raji (+), Raji-CD19-KO (+), Nalm6 (+), L363 (+), RS411 (+) (refer to approximately 5%, 10%, 20%, 30%, 40% and 50% GFP positive cells)”. In the case of B3, the “NFAT-GFP ASSAY: Raji” value is reported as 4+ (refer to approximately 5%, 10%, 20%, 30%, 40% and 50% GFP positive cells). For B4, the “NFAT-GFP ASSAY: Raji” value was “Raji (+), Raji-CD19-KO (+), Nalm6 (+), L363 (+), RS411 (+) (refer to approximately 5%, 10%, 20%, 30%, 40% and 50% GFP positive cells)”.

The molecules below were run on RAJI-CD19-KO cells (assay: JNG assay, co-culture with RAJI-CD19-KO cells). Conditions: co-culture with Raji-CD19-KO.
Assay type: cell-based
Outline: as §1
In the case of B1, the “NFAT-GFP ASSAY: Raji-CD19-KO” value is reported as 4+ (refer to approximately 5%, 10%, 20%, 30%, 40% and 50% GFP positive cells). With B2 the “NFAT-GFP ASSAY: Raji-CD19-KO” value was “Raji (+), Raji-CD19-KO (+), Nalm6 (+), L363 (+), RS411 (+) (refer to approximately 5%, 10%, 20%, 30%, 40% and 50% GFP positive cells)”. For B3, the “NFAT-GFP ASSAY: Raji-CD19-KO” value was 3+ (refer to approximately 5%, 10%, 20%, 30%, 40% and 50% GFP positive cells). B4 was tested, and the “NFAT-GFP ASSAY: Raji-CD19-KO” value was “Raji (+), Raji-CD19-KO (+), Nalm6 (+), L363 (+), RS411 (+) (refer to approximately 5%, 10%, 20%, 30%, 40% and 50% GFP positive cells)”.

What follows are molecules tested on L363 cells (assay: JNG assay, co-culture with L363 cells). Conditions: co-culture with L363.
Assay type: cell-based
Outline: as §1
With B1 the “NFAT-GFP ASSAY: L363” value was 2+ (refer to approximately 5%, 10%, 20%, 30%, 40% and 50% GFP positive cells). B2 was tested, and the “NFAT-GFP ASSAY: L363” value was “Raji (+), Raji-CD19-KO (+), Nalm6 (+), L363 (+), RS411 (+) (refer to approximately 5%, 10%, 20%, 30%, 40% and 50% GFP positive cells)”. For B3, the “NFAT-GFP ASSAY: L363” value was 3+ (refer to approximately 5%, 10%, 20%, 30%, 40% and 50% GFP positive cells). For B4, the “NFAT-GFP ASSAY: L363” value was “Raji (+), Raji-CD19-KO (+), Nalm6 (+), L363 (+), RS411 (+) (refer to approximately 5%, 10%, 20%, 30%, 40% and 50% GFP positive cells)”.

What follows are molecules tested on Nalm6 cells (assay: JNG assay, co-culture with Nalm6 cells). Conditions: co-culture with Nalm6.
Assay type: cell-based
Outline: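 NFAT-driven GFP in stably SAR-transduced Jurkat cells after coculture (E:T ~1:2; ~4–18 h), measured by flow cytometry and expressed as % GFP+ cells over parental Jurkat-NFAT-GFP cells.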
For B1, the “NFAT-GFP ASSAY: Nalm6” value was 5+ (refer to approximately 5%, 10%, 20%, 30%, 40% and 50% GFP positive cells). B2 was tested, and the “NFAT-GFP ASSAY: Nalm6” value was “Raji (+), Raji-CD19-KO (+), Nalm6 (+), L363 (+), RS411 (+) (refer to approximately 5%, 10%, 20%, 30%, 40% and 50% GFP positive cells)”. In the case of B3, the “NFAT-GFP ASSAY: Nalm6” value is reported as 2+ (refer to approximately 5%, 10%, 20%, 30%, 40% and 50% GFP positive cells). With B4 the “NFAT-GFP ASSAY: Nalm6” value was “Raji (+), Raji-CD19-KO (+), Nalm6 (+), L363 (+), RS411 (+) (refer to approximately 5%, 10%, 20%, 30%, 40% and 50% GFP positive cells)”.

What follows are molecules tested on RS;411 (assay: JNG assay, co-culture with RS;411 cells). Conditions: co-culture with RS411.
Assay type: cell-based
Outline: as §1
B1 was tested, and the “NFAT-GFP ASSAY: RS411” value was 4+ (refer to approximately 5%, 10%, 20%, 30%, 40% and 50% GFP positive cells). With B2 the “NFAT-GFP ASSAY: RS411” value was “Raji (+), Raji-CD19-KO (+), Nalm6 (+), L363 (+), RS411 (+) (refer to approximately 5%, 10%, 20%, 30%, 40% and 50% GFP positive cells)”. For B3, the “NFAT-GFP ASSAY: RS411” value was 4+ (refer to approximately 5%, 10%, 20%, 30%, 40% and 50% GFP positive cells). For B4, the “NFAT-GFP ASSAY: RS411” value was “Raji (+), Raji-CD19-KO (+), Nalm6 (+), L363 (+), RS411 (+) (refer to approximately 5%, 10%, 20%, 30%, 40% and 50% GFP positive cells)”.
